Measured values taken from patent US20250276077A1, “EPHA2 ANTIBODIES” (Immunome, Inc., priority 2022, published 2025).
Values belong to the substance of their own block, whether it stands above or below them.

Tests used:
Human EphA2 (human) [1] = biological target: Human EphA2 (human) (UniProt P29317); assay: IHC/IF on frozen human tumor tissue: PANC
Human EphA2 (human) [2] = biological target: Human EphA2 (human) (UniProt P29317); assay: IHC/IF on frozen human tumor tissue: HNC
Human EphA2 (human) [3] = biological target: Human EphA2 (human) (UniProt P29317); assay: IHC/IF on frozen human tumor tissue: CRC
Human EphA2 (human) [4] = biological target: Human EphA2 (human) (UniProt P29317); assay: IHC/IF on frozen human tumor tissue: UCEC-clear cell
Human EphA2 (human) [5] = biological target: Human EphA2 (human) (UniProt P29317); assay: IHC/IF on frozen human tumor tissue: MELA
Human EphA2 (human) [6] = biological target: Human EphA2 (human) (UniProt P29317); assay: IHC/IF on frozen human tumor tissue: ER+ BRC
Human EphA2 (human) [7] = biological target: Human EphA2 (human) (UniProt P29317); assay: IHC/IF on frozen human tumor tissue: GAC
Human EphA2 (human) [8] = biological target: Human EphA2 (human) (UniProt P29317); assay: IHC/IF on frozen human tumor tissue: OVA
Human EphA2 (human) [9] = biological target: Human EphA2 (human) (UniProt P29317); assay: IHC/IF on frozen human tumor tissue: TNBC
Human EphA2 (human) [10] = biological target: Human EphA2 (human) (UniProt P29317); assay: IHC/IF on frozen human tumor tissue: ANC
Human EphA2 (human) [11] = biological target: Human EphA2 (human) (UniProt P29317); assay: IHC/IF on frozen human tumor tissue: ESO
Human EphA2 (human) [12] = biological target: Human EphA2 (human) (UniProt P29317); assay: IHC/IF on frozen human tumor tissue: NSCLC-Adeno
Human EphA2 (human) [13] = biological target: Human EphA2 (human) (UniProt P29317); assay: IHC/IF on frozen human tumor tissue: STS
Human EphA2 (human) [14] = biological target: Human EphA2 (human) (UniProt P29317); assay: IHC/IF on frozen human tumor tissue: Her2+ BRC
Human EphA2 (human) [15] = biological target: Human EphA2 (human) (UniProt P29317); assay: IHC/IF on frozen human tumor tissue: PROC
Human EphA2 (human) [16] = biological target: Human EphA2 (human) (UniProt P29317); assay: IHC/IF on frozen human tumor tissue: UCEC-papillary
Human EphA2 (human) [17] = biological target: Human EphA2 (human) (UniProt P29317); assay: IHC/IF on frozen human tumor tissue: URO
Human EphA2 (human) [18] = biological target: Human EphA2 (human) (UniProt P29317); assay: IHC/IF on frozen human tumor tissue: RCC-papillary
Human EphA2 (human) [19] = biological target: Human EphA2 (human) (UniProt P29317); assay: IHC/IF on frozen human tumor tissue: RCC-clear cell
Human EphA2 (human) [20] = biological target: Human EphA2 (human) (UniProt P29317); assay: IHC/IF on frozen human tumor tissue: UCEC-endometrioid
Human EphA2 (human) [21] = biological target: Human EphA2 (human) (UniProt P29317); assay: IHC/IF on frozen human tumor tissue: NSCLC-SQ
[22] = biological target: Human EphA2 (ephrin receptor A2), native, in human tumor tissue (human) (UniProt P29317); assay: tissue staining of human cancer samples, 3 ug/ml
[23] = biological target: Human EphA2 (ephrin receptor A2), native, in human tumor tissue (human) (UniProt P29317); assay: tissue staining of human cancer samples, 30 ug/ml (the box on the sheet prints AB-010017 twice)
[24] = biological target: Human EphA2 (ephrin receptor A2), native, in human tumor tissue (human) (UniProt P29317); assay: tissue staining of human cancer samples, 30 ug/ml

IHC score (Human EphA2 (human) [1]): 1
IHC score (Human EphA2 (human) [2]): 2
IHC score (Human EphA2 (human) [3]): 1
IHC score (Human EphA2 (human) [4]): 2
IHC score (Human EphA2 (human) [5]): 3
IHC score (Human EphA2 (human) [6]): 1
IHC score (Human EphA2 (human) [7]): 1
IHC score (Human EphA2 (human) [8]): 2
IHC score (Human EphA2 (human) [9]): 1
IHC score (Human EphA2 (human) [10]): 2
IHC score (Human EphA2 (human) [11]): 2
IHC score (Human EphA2 (human) [12]): 2
IHC score (Human EphA2 (human) [13]): 2
IHC score (Human EphA2 (human) [14]): 2
IHC score (Human EphA2 (human) [15]): 1
IHC score (Human EphA2 (human) [16]): 3
IHC score (Human EphA2 (human) [17]): 1
IHC score (Human EphA2 (human) [18]): 1
IHC score (Human EphA2 (human) [19]): 1
IHC score (Human EphA2 (human) [20]): 2
IHC score (Human EphA2 (human) [21]): 2
Substance: LS-C36249-100 (extracellular) (antibody)

Reactive (% of samples), Bladder Urothelial Carcinoma [22]: 33%
Reactive (% of samples), Breast Cancer [22]: 0%
Reactive (% of samples), Cervical Squamous Cell Carcinoma [22]: 0%
Reactive (% of samples), Colorectal Adenocarcinoma [22]: 10%
Reactive (% of samples), Head & Neck Squamous Cell Carcinoma [22]: 0%
Reactive (% of samples), Liver Hepatocellular Cell Carcinoma [22]: 7%
Reactive (% of samples), Melanoma [22]: 0%
Reactive (% of samples), Non-Small Cell Lung Cancer [22]: 5%
Reactive (% of samples), Ovarian Cancer [22]: 0%
Reactive (% of samples), Renal Cancer [22]: 0%
Reactive (% of samples), Soft Tissue Sarcoma [22]: 0%
Reactive (% of samples), Stomach Adenocarcinoma [22]: 0%
Reactive (% of samples), Testicular Cancer [22]: 0%
Reactive (% of samples), Thyroid Cancer [22]: 0%
Reactive (% of samples), Uterine Cancer [22]: 0%
Reactive (% of samples), Bladder Cancer (Urothelial) [23]: 50%
Reactive (% of samples), Breast Cancer [23]: 47%
Reactive (% of samples), Cervical Cancer (Squamous) [23]: 40%
Reactive (% of samples), Colorectal Cancer (Adenocarcinoma) [23]: 40%
Reactive (% of samples), Esophageal Cancer (Squamous) [23]: 27%
Reactive (% of samples), Liver Cancer (HCC) [23]: 80%
Reactive (% of samples), Melanoma [23]: 29%
Reactive (% of samples), Non-Small Cell Lung Cancer [23]: 26%
Reactive (% of samples), Ovarian Cancer [23]: 53%
Reactive (% of samples), Renal Cancer [23]: 0%
Reactive (% of samples), Soft Tissue Sarcoma [23]: 9%
Reactive (% of samples), Stomach Cancer (Adenocarcinoma) [23]: 50%
Reactive (% of samples), Testicular Cancer [23]: 28%
Reactive (% of samples), Thyroid Cancer [23]: 44%
Reactive (% of samples), Uterine Cancer [23]: 21%
Substance: AB-010016 (based on Medi-547; mouse IgG2a format) (antibody)

IHC score (Human EphA2 (human) [1]): 2
IHC score (Human EphA2 (human) [2]): 2
IHC score (Human EphA2 (human) [3]): 1
IHC score (Human EphA2 (human) [4]): 2
IHC score (Human EphA2 (human) [5]): 3
IHC score (Human EphA2 (human) [6]): 1
IHC score (Human EphA2 (human) [7]): 1
IHC score (Human EphA2 (human) [8]): 2
IHC score (Human EphA2 (human) [9]): 1
IHC score (Human EphA2 (human) [10]): 2
IHC score (Human EphA2 (human) [11]): 2
IHC score (Human EphA2 (human) [12]): 2
IHC score (Human EphA2 (human) [13]): 1
IHC score (Human EphA2 (human) [14]): 1
IHC score (Human EphA2 (human) [15]): 1
IHC score (Human EphA2 (human) [16]): 2
IHC score (Human EphA2 (human) [17]): 1
IHC score (Human EphA2 (human) [18]): 1
IHC score (Human EphA2 (human) [19]): 1
IHC score (Human EphA2 (human) [20]): 2
IHC score (Human EphA2 (human) [21]): 2
Substance: MAB3035 (Gln25-Asn534) (antibody)

Reactive (% of samples), Bladder Urothelial Carcinoma [22]: 50%
Reactive (% of samples), Breast Cancer [22]: 0%
Reactive (% of samples), Cervical Squamous Cell Carcinoma [22]: 27%
Reactive (% of samples), Head & Neck Squamous Cell Carcinoma [22]: 38%
Reactive (% of samples), Liver Hepatocellular Cell Carcinoma [22]: 0%
Reactive (% of samples), Non-Small Cell Lung Cancer [22]: 11%
Reactive (% of samples), Ovarian Cancer [22]: 6%
Reactive (% of samples), Renal Cancer [22]: 0%
Reactive (% of samples), Soft Tissue Sarcoma [22]: 3%
Reactive (% of samples), Stomach Adenocarcinoma [22]: 25%
Reactive (% of samples), Testicular Cancer [22]: 0%
Reactive (% of samples), Thyroid Cancer [22]: 8%
Reactive (% of samples), Bladder Cancer (Urothelial) [24]: 38%
Reactive (% of samples), Breast Cancer [24]: 8%
Reactive (% of samples), Cervical Cancer (Squamous) [24]: 36%
Reactive (% of samples), Colorectal Cancer (Adenocarcinoma) [24]: 10%
Reactive (% of samples), Esophageal Cancer (Squamous) [24]: 13%
Reactive (% of samples), Liver Cancer (HCC) [24]: 43%
Reactive (% of samples), Melanoma [24]: 7%
Reactive (% of samples), Non-Small Cell Lung Cancer [24]: 5%
Reactive (% of samples), Ovarian Cancer [24]: 47%
Reactive (% of samples), Renal Cancer [24]: 12%
Reactive (% of samples), Soft Tissue Sarcoma [24]: 3%
Reactive (% of samples), Stomach Cancer (Adenocarcinoma) [24]: 25%
Reactive (% of samples), Testicular Cancer [24]: 0%
Reactive (% of samples), Thyroid Cancer [24]: 0%
Reactive (% of samples), Uterine Cancer [24]: 7%
Substance: AB-010017 (based on MM-310; mouse IgG2a format) (antibody)
